Here are results for 17 variants from the supplement of paper PMC12855868.

First the molecules themselves.
B1: library; numbered along this chain (parent)
chain: MAAAGGARLLRAASAVLGGPAGRWLHHAGSRAGSSGLLRNRGPGGSAEASRSLSVSARARSSSEDKITVHFINRDGETLTTKGKVGDSLLDVVVENNLDIDGFGACEGTLACSTCHLIFEDHIYEKLDAITDEENDMLDLAYGLTDRSRLGCQICLTKSMDNMTVRVPETVADARQSIDVGKTS

The variants in this data set derive from B1. Briefly: scaled log2 fold change in cell abundance, elesclomol vs control (0 = silent mean, 1 = nonsense mean) (scaled log2 ratio); higher = higher viability under elesclomol (loss of FDX1 cuproptosis function). The following applies: glucose 10 mM. The procedure:
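Deep mutational scan of full-length human FDX1: a pooled saturation-mutagenesis ORF library (every residue 2-184 mutated to all 19 amino acids plus stop, and silent codons where available) was expressed by lentivirus in FDX1-knockout ABC1 (14 days) or HEK293T (11 days) cells grown with elesclomol (ES) or DMSO control. Variant abundance came from ORF sequencing. The log2 fold change (ES vs control, mean of duplicates) was centred on the silent-variant mean (0) and scaled to the nonsense-variant mean (1). Higher values mean greater viability under ES, i.e. loss of FDX1 function in cuproptosis.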

[1] abbreviates: with ABC1 FDX1 KO, elesclomol 5 nM, 14 days.
The mark [2] stands for this setting: with HEK293T FDX1 KO, elesclomol 40 nM, 11 days.
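Note: variant abundance is its share of total variant reads in each endpoint sample, from next-generation sequencing of the integrated ORF PCR-amplified out of genomic DNA.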

For the variant MEAAGGARLLRAASAVLGGPAGRWLHHAGSRAGSSGLLRNRGPGGSAEASRSLSVSARARSSSEDKITVHFINRDGETLTTKGKVGDSLLDVVVENNLDIDGFGACEGTLACSTCHLIFEDHIYEKLDAITDEENDMLDLAYGLTDRSRLGCQICLTKSMDNMTVRVPETVADARQSIDVGKTS [A2E], the “scaled log2 fold change” value reads like this: under setting [1], -0.26; under setting [2], 0.752.

For MFAAGGARLLRAASAVLGGPAGRWLHHAGSRAGSSGLLRNRGPGGSAEASRSLSVSARARSSSEDKITVHFINRDGETLTTKGKVGDSLLDVVVENNLDIDGFGACEGTLACSTCHLIFEDHIYEKLDAITDEENDMLDLAYGLTDRSRLGCQICLTKSMDNMTVRVPETVADARQSIDVGKTS [A2F], the “scaled log2 fold change” value runs as follows: under setting [1], 0.0573; under setting [2], -0.164.

With MIAAGGARLLRAASAVLGGPAGRWLHHAGSRAGSSGLLRNRGPGGSAEASRSLSVSARARSSSEDKITVHFINRDGETLTTKGKVGDSLLDVVVENNLDIDGFGACEGTLACSTCHLIFEDHIYEKLDAITDEENDMLDLAYGLTDRSRLGCQICLTKSMDNMTVRVPETVADARQSIDVGKTS [A2I], the “scaled log2 fold change” value is -0.127 under setting [1] and -0.279 under setting [2].

In the case of MGAAGGARLLRAASAVLGGPAGRWLHHAGSRAGSSGLLRNRGPGGSAEASRSLSVSARARSSSEDKITVHFINRDGETLTTKGKVGDSLLDVVVENNLDIDGFGACEGTLACSTCHLIFEDHIYEKLDAITDEENDMLDLAYGLTDRSRLGCQICLTKSMDNMTVRVPETVADARQSIDVGKTS [A2G], the “scaled log2 fold change” value under setting [1] turned out to be 0.451.

For MVAAGGARLLRAASAVLGGPAGRWLHHAGSRAGSSGLLRNRGPGGSAEASRSLSVSARARSSSEDKITVHFINRDGETLTTKGKVGDSLLDVVVENNLDIDGFGACEGTLACSTCHLIFEDHIYEKLDAITDEENDMLDLAYGLTDRSRLGCQICLTKSMDNMTVRVPETVADARQSIDVGKTS [A2V], the “scaled log2 fold change” value amounted to 0.0325 under setting [1] and 0.473 under setting [2].

In the case of MHAAGGARLLRAASAVLGGPAGRWLHHAGSRAGSSGLLRNRGPGGSAEASRSLSVSARARSSSEDKITVHFINRDGETLTTKGKVGDSLLDVVVENNLDIDGFGACEGTLACSTCHLIFEDHIYEKLDAITDEENDMLDLAYGLTDRSRLGCQICLTKSMDNMTVRVPETVADARQSIDVGKTS [A2H], the “scaled log2 fold change” value under setting [1] is 0.1 and the “scaled log2 fold change” value under setting [2] stood at 0.132.

For the variant MTAAGGARLLRAASAVLGGPAGRWLHHAGSRAGSSGLLRNRGPGGSAEASRSLSVSARARSSSEDKITVHFINRDGETLTTKGKVGDSLLDVVVENNLDIDGFGACEGTLACSTCHLIFEDHIYEKLDAITDEENDMLDLAYGLTDRSRLGCQICLTKSMDNMTVRVPETVADARQSIDVGKTS [A2T], the “scaled log2 fold change” value was 0.0597 under setting [1] and -0.252 under setting [2].

For the variant MRAAGGARLLRAASAVLGGPAGRWLHHAGSRAGSSGLLRNRGPGGSAEASRSLSVSARARSSSEDKITVHFINRDGETLTTKGKVGDSLLDVVVENNLDIDGFGACEGTLACSTCHLIFEDHIYEKLDAITDEENDMLDLAYGLTDRSRLGCQICLTKSMDNMTVRVPETVADARQSIDVGKTS [A2R], the “scaled log2 fold change” value reads like this: under setting [1], 0.187; under setting [2], 0.489.

As to MMAAGGARLLRAASAVLGGPAGRWLHHAGSRAGSSGLLRNRGPGGSAEASRSLSVSARARSSSEDKITVHFINRDGETLTTKGKVGDSLLDVVVENNLDIDGFGACEGTLACSTCHLIFEDHIYEKLDAITDEENDMLDLAYGLTDRSRLGCQICLTKSMDNMTVRVPETVADARQSIDVGKTS [A2M], the “scaled log2 fold change” value under setting [1] stood at 0.0773 and the “scaled log2 fold change” value under setting [2] stood at 0.0994.

On to MSAAGGARLLRAASAVLGGPAGRWLHHAGSRAGSSGLLRNRGPGGSAEASRSLSVSARARSSSEDKITVHFINRDGETLTTKGKVGDSLLDVVVENNLDIDGFGACEGTLACSTCHLIFEDHIYEKLDAITDEENDMLDLAYGLTDRSRLGCQICLTKSMDNMTVRVPETVADARQSIDVGKTS [A2S], for which the “scaled log2 fold change” value reads like this: under setting [1], -0.234; under setting [2], 0.215.

For MKAAGGARLLRAASAVLGGPAGRWLHHAGSRAGSSGLLRNRGPGGSAEASRSLSVSARARSSSEDKITVHFINRDGETLTTKGKVGDSLLDVVVENNLDIDGFGACEGTLACSTCHLIFEDHIYEKLDAITDEENDMLDLAYGLTDRSRLGCQICLTKSMDNMTVRVPETVADARQSIDVGKTS [A2K], the “scaled log2 fold change” value under setting [1] came out at 0.0757 and the “scaled log2 fold change” value under setting [2] is -0.0727.

For MQAAGGARLLRAASAVLGGPAGRWLHHAGSRAGSSGLLRNRGPGGSAEASRSLSVSARARSSSEDKITVHFINRDGETLTTKGKVGDSLLDVVVENNLDIDGFGACEGTLACSTCHLIFEDHIYEKLDAITDEENDMLDLAYGLTDRSRLGCQICLTKSMDNMTVRVPETVADARQSIDVGKTS [A2Q], the “scaled log2 fold change” value by setting is: under setting [1], -0.344; under setting [2], -0.344.

Consider MDAAGGARLLRAASAVLGGPAGRWLHHAGSRAGSSGLLRNRGPGGSAEASRSLSVSARARSSSEDKITVHFINRDGETLTTKGKVGDSLLDVVVENNLDIDGFGACEGTLACSTCHLIFEDHIYEKLDAITDEENDMLDLAYGLTDRSRLGCQICLTKSMDNMTVRVPETVADARQSIDVGKTS [A2D], for which the “scaled log2 fold change” value is 0.173 under setting [1] and 0.487 under setting [2].

Take MLAAGGARLLRAASAVLGGPAGRWLHHAGSRAGSSGLLRNRGPGGSAEASRSLSVSARARSSSEDKITVHFINRDGETLTTKGKVGDSLLDVVVENNLDIDGFGACEGTLACSTCHLIFEDHIYEKLDAITDEENDMLDLAYGLTDRSRLGCQICLTKSMDNMTVRVPETVADARQSIDVGKTS [A2L]: the “scaled log2 fold change” value under setting [1] was 0.0991 and the “scaled log2 fold change” value under setting [2] is -0.056.

As for MCAAGGARLLRAASAVLGGPAGRWLHHAGSRAGSSGLLRNRGPGGSAEASRSLSVSARARSSSEDKITVHFINRDGETLTTKGKVGDSLLDVVVENNLDIDGFGACEGTLACSTCHLIFEDHIYEKLDAITDEENDMLDLAYGLTDRSRLGCQICLTKSMDNMTVRVPETVADARQSIDVGKTS [A2C], the “scaled log2 fold change” value is, setting by setting: under setting [1], 0.441; under setting [2], 0.0714.

Take MNAAGGARLLRAASAVLGGPAGRWLHHAGSRAGSSGLLRNRGPGGSAEASRSLSVSARARSSSEDKITVHFINRDGETLTTKGKVGDSLLDVVVENNLDIDGFGACEGTLACSTCHLIFEDHIYEKLDAITDEENDMLDLAYGLTDRSRLGCQICLTKSMDNMTVRVPETVADARQSIDVGKTS [A2N]: the “scaled log2 fold change” value under setting [1] is -0.0435 and the “scaled log2 fold change” value under setting [2] is 0.135.

As to MPAAGGARLLRAASAVLGGPAGRWLHHAGSRAGSSGLLRNRGPGGSAEASRSLSVSARARSSSEDKITVHFINRDGETLTTKGKVGDSLLDVVVENNLDIDGFGACEGTLACSTCHLIFEDHIYEKLDAITDEENDMLDLAYGLTDRSRLGCQICLTKSMDNMTVRVPETVADARQSIDVGKTS [A2P], the “scaled log2 fold change” value was -0.0191 under setting [1] and 0.0189 under setting [2].
